In patent publication US5811533, “High-affinity oligonucleotide ligands to vascular endothelial growth factor (VEGF)” (NeXstar Pharmaceuticals, Inc.):

Assays:
[1] = molecular target: T1, VEGF165 (recombinant human vascular endothelial growth factor, 165 aa form) (Homo sapiens, UniProt P15692-4 P15692-4:27-191); assay: inhibition; VEGF receptor binding; settings: tags: gift from N. Ferrara, Genentech; chain copies: 2 (dimer, stated)
[2] = molecular target: T1, VEGF165 (recombinant human vascular …); assay: filter; settings: tags: gift from N. Ferrara, Genentech; chain copies: 2 (dimer, stated)
[3] = molecular target: T1, VEGF165 (recombinant human vascular …); assay: filter; PBS, 0.01% HSA, 37 C; Kd1, X1 0.70, Kd2 38 nM; settings: tags: gift from N. Ferrara, Genentech; chain copies: 2 (dimer, stated); label: 32P
Description: (§1) Internally-labeled RNA ligands used for binding studies were prepared by in vitro transcription using T7 RNA polymerase (Milligan et al. (1987) Nucl. Acids Res. 15:8783) and were purified on denaturing polyacrylamide gels to ensure size homogeneity. All RNA ligands were diluted to about 1 nM in PBS, denatured at 90° C. for 2 minutes, and then cooled on ice prior to incubation with the protein. This denaturation/renaturation cycle performed at high dilution is necessary to ensure that the RNA is essentially free from dimers and other higher order aggregates. Concentrations of the stock solutions of VEGF, from which other dilutions were made, were determined from the absorbance reading at 280 nm using the calculated value for ε280 of 46,600 M^-1cm^-1 for the VEGF dimer (Gill et al. (1989) Anal. Biochem. 182:319). Data sets that define the binding curves were fit to either eq. 2 or eq. 5 by the non-linear least squares method using the software package Kaleidagraph (Synergy Software, Reading, Pa.). […]

[4] = molecular target: T1, VEGF165 (recombinant human vascular …); assay: filter; PBS, 0.01% HSA, 37 C; Kd1, X1 0.53, Kd2 31 nM; settings: tags: gift from N. Ferrara, Genentech; chain copies: 2 (dimer, stated); label: 32P; asymmetrical internal loop
Description: as §1

[5] = molecular target: T1, VEGF165 (recombinant human vascular …); assay: filter; monophasic; settings: tags: gift from N. Ferrara, Genentech; chain copies: 2 (dimer, stated)
[6] = molecular target: T1, VEGF165 (recombinant human vascular …); assay: filter; Kd1, X1 0.54, Kd2 9 nM; settings: tags: gift from N. Ferrara, Genentech; chain copies: 2 (dimer, stated)
[7] = molecular target: T1, VEGF165 (recombinant human vascular …); assay: filter; PBS, 0.01% HSA, 37 C; monophasic; settings: tags: gift from N. Ferrara, Genentech; chain copies: 2 (dimer, stated); label: 32P; bulged hairpin
Description: as §1

[8] = molecular target: T1, VEGF165 (recombinant human vascular …); assay: filter; PBS, 0.01% HSA, 37 C; Kd1, X1 0.19, Kd2 10 nM; settings: tags: gift from N. Ferrara, Genentech; chain copies: 2 (dimer, stated); label: 32P
Description: as §1

[9] = molecular target: T1, VEGF165 (recombinant human vascular …); assay: filter; PBS, 0.01% HSA, 37 C; Kd1, X1 0.82, Kd2 42 nM; settings: tags: gift from N. Ferrara, Genentech; chain copies: 2 (dimer, stated); label: 32P
Description: as §1

[10] = molecular target: T1, VEGF165 (recombinant human vascular …); assay: inhibition; VEGF receptor binding; single value printed in Ki column; settings: tags: gift from N. Ferrara, Genentech; chain copies: 2 (dimer, stated)

T1 sequence (P15692 other isoform, or with tags, fused parts or gaps): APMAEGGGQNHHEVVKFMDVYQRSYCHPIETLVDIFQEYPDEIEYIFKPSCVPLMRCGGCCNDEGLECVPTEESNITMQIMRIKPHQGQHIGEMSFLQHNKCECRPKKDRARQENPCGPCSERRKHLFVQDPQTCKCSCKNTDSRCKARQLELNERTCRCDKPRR

Binder: CCCGTCTTCCAGACAAGAGTGCAGGG (ssDNA) [33t]
- Ki [1]: 3 nM
- Kd [2]: 0.7 nM

B1: ligand 44 (ssRNA)
RNA: GGGAGCUCAGAAUAAACGCUCAAGCUUGAUGGGUGACACACGUCAUGCCGAGCUUCGACAUGAGGCCCGGAUCCGGC
- Kd [3]: 1.7 nM

Binder: GGCUCAAUAGUUGGAGGCCUGUCCUCGCCGUAGAGC (ssRNA) [ligand 84t]
- Kd [4]: 1.8 nM

B2: 23A (ssRNA)
RNA: GGGAGACAAGAAUAACGCUCAAGAGGCUGAUGGCAGACGCGGCCGAAGACAUUCGACAGGAGGCUCACAACAGGC
modifications: 2'-NH2 pyrimidines
- Kd [5]: 2.8 nM

B3: 44B (ssRNA)
RNA: GGGAGGACGAUGCGGAACCGAGUCGUGUGGGUUGGGGCUCCAGUACAUCCCCGGUCUGGGUGUCAGACGACUCGCCCGA
modifications: 2'-NH2 pyrimidines
- Kd [6]: 0.14 nM

Binder: GGUCAACGGUUGAGUCUGUCCCGUUCGAC (ssRNA) [ligand 40t]
- Kd [7]: 20 nM

B4: ligand 40 (ssRNA)
RNA: GGGAGCUCAGAAUAAACGCUCAAGACCCAUCGUCAACGGUUGAGUCUGUCCCGUUCGACAUGAGGCCCGGAUCCGGC
- Kd [8]: 0.19 nM

B5: ligand 100 (ssRNA)
RNA: GGGAGCUCAGAAUAAACGCUCAACCGGUAGUCGCAUGGCCCAUCGCGCCCGGUUCGACAUGAGGCCCGGAUCCGGC
- Kd [9]: 0.2 nM

Binder: ACCCUGAUGGUAGACGCCGGGGUG (ssRNA, 2'-NH2 pyrimidines) [NX-107]
- Ki [10]: 1 nM
